Reference: the nanobody polyreactivity screen of Harvey et al. (2022)

Experiment: yeast display, Sf9 membrane polyspecificity reagent, FACS + sequencing; frameworks hold sequencing errors
Outline: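 After 36–48 hours of galactose induction, yeast (Saccharomyces cerevisiae BJ5465) displaying a synthetic nanobody library were stained at 4 °C for 1 hour with 10% biotinylated, detergent-solubilized Sf9 membrane reagent. Streptavidin microbeads enriched the stained cells before FACS sorting into low and high (top ~1%) gates on anti-HA and streptavidin fluorescence. Each clone's polyreactivity label reflects its gate of origin.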

| Sequence | polyreactivity (PSR sort gate) |
| --- | --- |
| QVHLVESGGGLVQAGGSLRLSCAASGRIRFNAMGWYRQAPGKERELVAAITSDGGRTYYADSVKGRFTISRDNAKNTVYLQMNSLKPEDTAVYYCNTDYILWGDYDYWGQGTQVTVSS | low polyreactivity |
| QVQLVESGGGLVQAGGSLRLSCASSVYIFVSNTKGWYRPAPGKERELVAAISWSGGSTNYADSVKGRFTISRDKAKNTVYLLMNSLKPEDTAVYYCNADDASHYYFRDDYWGQGTQVTVSS | low polyreactivity |
| QVQLVESGGVLVQAGGSLRLSCAASGRSFGVYAMGWYRQAPGKEMELVAAISEGGGSTNYADSVKGRFTISRDNAKNTVYLQMNSLKPEDTAVYYCAATYRTGVRRYYSWGQGTQVTVSS | low polyreactivity |
| QVQLVESGGGLVQAGGSLRLSCAASGSTFGYNGMGWYRQAPGKVRELVAAISGGARTYADSVKGRFTISRDNAKNTVYLQMNSLKPEDTAVYYCAADSPVSVTADDGYWGQGTQVTVSS | low polyreactivity |
| QVQLVESGGGLVQAGGSLRLSCAASGRIFDTNVMGWYRQAPGTEREFVAAIRWNGGSTNYADSVKGRFTISRDNAKNTVYLQMNSLKPEDTAVYYCAADGSIGWRHIYEYWGQATQVTVSS | low polyreactivity |
| QVQLVESGGGLVQAGGSLRLSCAASGLTIDRNAMGWYRQAPGKERELVAAINWRGSRTYYADSVKGRFTISRDNAKNTVYLQMNSLKPEDTAVYYCAADWHTTYDYWGQVTQVTVSS | high polyreactivity |
| QVQLVESGGGLVQAGGSLRLSCAASGSIFSFYTMGWYRQAPGKERELVASSTTYADSVKGRFTISRDNAKNTVYLQMNSLQPEDTAVYYCATRHPARRDYWGQGTQVTVSS | low polyreactivity |
| QVQLVESGGGLVQAGGSLRLSCAASGITFSNYSMGWYRQAPGKERELVAAISKRGGSTYYADSVKGRFTISRDNAKNTVYLQMNSLKPEDTAVYNCAAAGVRVYVRSGLDYWGQGTQVTVSS | high polyreactivity |
| QVQLVESGGGLVQAGGSLRLSCAASGRTFILYAMGWYRQAPWKERELVAAITRRGGRTYYADSVKGRFTISRDNAKNTVYLQMNSLKREDTAVYYCAADQYYYTQPSDMDYWGQGTQVTVSS | high polyreactivity |
| QVQLVESGGGLVQAGGSLRLSCAASGFTFGWYAMGRYRQAPGKERELVAAISRGGSTYYADSVKGRFTISRDNAKNTVYLQMNSLKPEDTAVYYCNAAGLPTQLYYWGQGTQVTVSS | high polyreactivity |
| QVQLVESGGGLVQAGGSLRLSCAASGITYVSNAMGWYRQAPGKERELFAANTRRGTSTYYADSVKGRFTLSRDNAKNTVYLQMNSLKPVDTAVYYCNKVWKYSSSGFGKEVYGYDYWGQGTQVTVSS | high polyreactivity |
| QVQLVESGGGLVQAGGSLRLSCAASGRIFWRNTMGWYRQAPGKERELVAAITRTGGSTYYADSVKGRFTISRDNAKNTVYLQMNSLKPEDTAVYYCAVYARWYGYGYGYWGQGTQVTVSS | high polyreactivity |
| QVQLVESGGGLVQAGGSLRLSCAASGFTFWYYAMGWYRQAPGKERELVASISSIGGSTYYADSVKGRFTISRDNAKNTVYLQMNSLKPEDTAVYYCAARYKFLRGGVRRDYWGQGTQVTVSS | high polyreactivity |
| QVQLVESGGGLVQAGGSLRLSCAASGIIFDSYALGWYRQAPGKERELVAAITSRGGRTYYAVSVKGRFTISRDNAKNTVYLQMNSLKPEDTAVYYCAARAKYDRRTDGTSGYDYWGQGTQVTVSS | low polyreactivity |
| QVQLVESGGGLVQAGGSLRLSCAASGIIFRRYAMGWYRPEPGLVRELVAAISASGVRTYYADSVKGRFTISRDNAKNTVYFQMNSLKPEDTAVYYCAAATKRVEYEYWGQGTQVTVSS | high polyreactivity |
| QVQLVESGGGLVQAGGSLRLSCAASGRTFSANAMGWYRQAPGKERELVAAISSGGSTTYADSVKGRFTISRDNAKNTVYLQMNSLKPEDTAVYYCAAVWLSLFKGWVDTHEYDYWGQGTQVTVSS | low polyreactivity |
| QVQLVESGAGLVQAGGSLRLSCAASGYIFYKNAMGWYRQAPGKERELVAAISTRGGSTYYADSVKGRFTISRDNAQNTVYLHMNSLKPEDTAVNYCAASQNRRDWGQGTQVTVSS | high polyreactivity |
| QVQLVESGVGLVQAGGSLRLICAASGFILGQNAMGWYRQAPGKEREFVADISWSGDSTYYADSVKGRFTISRDNAKNTVYFQMNSLKPEDTAVYYCAADPYYNWGYYYWGQGTQVTVSS | low polyreactivity |
| QVQLVESGGGLVQAGGSLRLSCAASGSIFRSYAMGWYRQAPGKERELVAAITSRGSSTYYADSVTGRFTISRDNAKNTVYLQMNSLKPEDSAVYYCATVFPYSARDGLDYWGQGTQVTVSS | high polyreactivity |
| QGQHVESGGGLVQAGGSLRLSCAASGSIFAAYAMGWYRQATGKERELVAPIDRGGSTDYADSVKGRFTISRDNAKNTVFLPMNSLKPEDTAVYYCDKGYDYYVRRYYYWGQGTQVTGSS | high polyreactivity |
| QVQLVESGGGLVQAGGTLRLSCAASGSIFLINAMGWYRPAPGKERELVAAISRSGGRTYYADSVKGRFTISRDNAKNTVYLQMNSLKPEDTAVYYCAVPSIYYAGRAYDYWGQGTQVSVSS | high polyreactivity |
| QVQLVESGGGLVQAGGSLRLSCAASGSTLRRYAMGWYRQAPGKERELVAAITRGSSTTYADSVKGRFTISRDNAKNTVYLQMNSLKPEDTAVYYCNTYFSRNFDYWGQGTQVTVSS | high polyreactivity |

| Sequence | polyreactivity (PSR sort gate) |
| --- | --- |
| QVQLLESGGGLVQAGGSLRFSCAASGFTFPVYAMGWYRQAHGKEREFVAAISWSGGSTSYADSVKGRFTSSRDNAKNTVYLQMNSLKPEDTAVYYCAAEHEQYTQLDYWGQGTQVTVAS | high polyreactivity |
| QVQLVESGGGLVQAGGSLRLSCAASGNAMGWYRQAPGKERELVAAITYGGTTTYYADSVKGRFTISRDNAKNTVYLQMNSLKPEDTAVYYCAADYVFVATPLRYDYWGQGTQVTVSS | low polyreactivity |
| QVQLVESGGGLVQAGGSLRLSCAASGLTFHRYAMGWYRQAPGKERELVAAISRSGVTTRYADSVKGRFTISRDNAKNTVYLQMNSLKPEDTAVYYCAAVYRVRKITYDYWGQGTQVTVSS | high polyreactivity |
| QVQLVESGGGLVQAGGSLRLSCAASGGIFIRNAMGWYRQAPGKERELVATISNAGSTYADSVKGRFTISRDNAKNTVYLQMNSLKPEDTAVYYCNRDDWTYPVSQGLQEYDYWGQGTQVTVSS | low polyreactivity |
| QVQLVESGGGLVHAGGSLRLSCAASGRTLWGYVMGWYREAPGKERELVAVITASGGSTYYADSVNGRFTISRDNAKNTVYLQMYSLKPEDTAVYYCNADSRAERYFWSFVENDYWVQGTQVTVSS | low polyreactivity |
| QVQLVESGGGLVQAGGSLRLSCAASGSTFLDYAMGWYRQAPGKERELVAAITSGGSTYYADSVKGRFTISRDNAKNTVYLQMNSLKPEDTAVYYCAAEQTQLYSFGWDEYWGQGTQVTVSS | low polyreactivity |
| QVQLVESVGGLVQAGGSLRLSCAASGSTFYIYAMRWYRQAPGKERELVARISGSGGSTYYADSVKGRFTISRDNAKNTVYLQMNSLKPEDTAVYYCAADAIYKYYQYYAFPYYRYDYWGLGTQVTVSS | low polyreactivity |
| QVQLVESGGGLVQAGGSLRLSCAAPGSIFYQNAMGGYRQAPGKERELVAAISRSGGSTYYADSVKGRFTISRDNAKNTVYLQMNSLKPEDTAVYYCAARISRQRSYSRDYWGQGTQVTVSS | high polyreactivity |
| QVQIVESGGGLVQAGGSLRLSCAASGSIFYYYAMGWYRQAPGNERELVADISISGGSTYYADSVKGRFTISRDTAKNTVYLQMNSQKPEDTAVYYSAATSTYRSYLEYDYWGQGTQVTVSS | low polyreactivity |
| QVHLVESGGGLVQAGGSLRLNCAASGRTFTEYAMGWYTPAPGKERELVAAITTVGSTYYADSVKGRFTISRDNAKNTVDIQMNSQKPEDTAVYYCDVERDYWTKASYYWGQGTQVTVSS | low polyreactivity |
| QVQLVESGGGLVQAGGSLRLSCAASGSIFRVNDMGWYRQAPGKERELVATISRSGAITYYADSVKGRFTISRDNAKNTVNLQMNSLKPEDNAVYYCAADFLSRDWGQGTQVTLSS | low polyreactivity |
| HVQLQESGGGLVQAGGSLRLSCAASGSIFQATYMGWYRQAPGKEREFVASITYGSITNYADSVKGRFTIGRDNPKDTLYLQMNSLKPEDTAVYYCAVDRHYIPAFHYWGQGTQVTVSS | low polyreactivity |
| QVQLVESGGGLVQAGGSLRLSCAASGSIIPLYAMGWYRQPPGKERELVAAITSNGGRTYYADSVKGRFTISRDNAKNTVYLQMNSLKPEDTAVYYCNKYLLDYRRGRSDYWGQGTQVTVSS | low polyreactivity |
| QVQLVESGGGLVQAGGSLRLTCAASGFIFYSYAMGWYRQAPGKERELVAAISTSGGSTYYADSVKGRFTISRDNAKNTVYLQMNSLKPEDTAVYYCAVGRKFGRYRVPFVVPYEYWGQGTQVTVSS | high polyreactivity |
| QVQLVESGGGLVQAGGSLRLSCAASGSTLNYYAMGWYRQAPGKERELVAAITWSGGSTSYADSVKGRFTISRDNAKNTVYVQMNSLKPEDTAVYYGATDFPTVQLYDTDWLSSDMGYWGQGTQVTVSS | low polyreactivity |
| QVQLVESGGDLVQAGGSLRLSCAASGITFVYNAMGWYRQAPGKESELVAGITWSGSSTYYADSVKGRFTISRDNAKNTVYFQMNSLKPEDTAVYYCAAYLYERTTRYRVYLQWKHGYWGQGTQVTVSS | high polyreactivity |
| QVQLVESGGGLVQAGGSLRLSCAASGFTLSRYVMGWYRQAPGKERELVATISTDTGDTYYADSVKGRFTISRDNAKNTVYLQMNSLKPEDTAVYYCAVEEWYIYLDLYWSYYYWGQGTQVTVSS | high polyreactivity |
| QVQLVESGGGLVQAGVSLRLSCAASGSIFSWNAMGWYRQAPGKERELVATITWNGGRTYYADSVKGRFTISRDNAKNTVYLQMNSLKPEDTAVYYCAARYYVYWTYPYRVLSYYYWGQGTQVTVSS | high polyreactivity |
| QVQLVESGGGLVQAGGSLRLSCAASGIIFRLNAMGWYRQAPGKERELGAAIRRRGGSTYYADSVKGRFTISRDNAKNTVYLQMNSLKPEDTAVYYCAADAPWAYYEYDYWGQGTQVTVSS | low polyreactivity |
| QVQLVESGGGLVQAGGSLRLSCAASGLTLVTYAMGSYRQAPGKERELVAAINSGGSTNYADSVKGRFTISRDNAKNTVYLQMNSLKPEDTAVYYCNADRVSPATYDYWGQGTQVTVSS | low polyreactivity |
| QVQLVESGGGLVQAGGSLRLSCAASGRIFDNYVMGWYRQAPGKERELVAAITWDGTSTYYADSVKGRFTISRDNAKNTVYLQMNSLKPEDTAVYYCAADFYPYSWEEVDYWGQGTQVTVSS | low polyreactivity |
